The DeepSol protein solubility set

Assay: soluble on expression in E. coli; label from the status in PepcDB or PDB records

Sequence	soluble on expression in E. coli
LRLHQWLRNHQPDEPPPDSYGLWGEVFDNIYHLQRRNQRARGRLQAVIDRIQESTAALRDAVIMLDSDGNLEWWNLAAENLLGLKTPQDGGQPVSNLIRHPRFKEYFDQEDYREPLEIPSPINERLRLQFHITLYGNREHLMLVRDVTRVHQLEQMRKDFVANVSHELRTPLTVIAGYLETLLDNVEDVNPRWLRALQQMQQQAGRMQNLLNDLLLLAKLEATDYPGDNKPVAVDALLASIRNDAQALSAGRNHRISLDAAPAVQLKGSEAELRSAFSNLVFNAVKYTPDEGEIRIRWWADEQGAHLSVQDTGIGVDPKHLPRLTERFYRVDSSRASNTGGTGLGLAIVKHVLIRHRARLEISSVPGKGSTFTCHFAPAQVAEAERKAPK	not soluble
LSITDCRGAPLYEFRYPQQFYATFASVPPLLVHSLLFIENRDLLDPQQPLANPAVDWPRFVKAAWSQVAKMFALPGQSAGGSTLATQLEKYRHSPDGLTQSGSEKLRQMISASVRAYQPGAETLEVRQRVVRDYLNSVPLSAVPGHGEVHGLAEGLRVWFGVDFARTNQLLASGPTDQQGLADKALALREVLSLVIAQRRPSHYLAK	not soluble
LSNLPRVKHTLVPPPFAHAHEQVAASGPVINEFEMRIIEKEVQLDEDAYLQAMTFDGSIPGPLMIVHEGDYVELTLINPPENTMPHNIDFHAATGALGGGGLTLINPGEKVVLRFKATRAGAFVYHCAPGGPMIPWHVVSGMAGCIMVLPRDGLKDHEGKPVRYDTVYYIGESDHYIPKDEDGTYMRFSDPSEGYEDMVAVMDTLIPSHIVFNGAVGALTGEGALKAKVGDNVLFVHSQPNRDSRPALIGGHGDLVWETGKFHNAPERDLETWFIRGGTAGAALYKFLQPGVYAYVNHNLIEAVHKGATAHVLVEGEWDNDLMEQVVAPVGLTG	soluble
LSSVSSIPDYAEQLRTADLRVTRPRVAVLEAVNAHPHADTETIFGAVRFALPDVSRQAVYDVLHALTAAGLVRKIQPSGSVARYESRVGDNHHHIVCRSCGVIADVDCAVGEAPCLTASDHNGFLLDEAEVIYWGLCPDCSISDTSRSHP	soluble
LTTHNFARKTFLKLAFCDICQKFLLNGFRCQTCGYKFHEHCSTKVPTMCVDW	soluble
MAAAAAARKGGFWQRFAGKGVVQHCQSPTAPLPEACADMLWSNLGLLAAESIVPVLQNWARALKTDGLLFFTCFGRDTLAELKCRLKENGIESRSVMFPDMHDLGDMLAENGFYDPVTDTAKLVLDYKKAETFWADMDTLGIWRAMAWNDENAARSCVGTIFEREGGLGITLETVYGHAVKKLMLPQGENVVQFFPKRLEHHHHHH	soluble
MAAHGGSAASSALKGLIQQFTTITGASESVGKHMLEACNNNLEMAVTMFLDGGGIAEEPSTSSASVSTVRPHTEEEVRAPIPQKQEILVEPEPLFGAPKRRRPARSIFDGFRDFQTETIRQEQELRNGGAIDKKLTTLADLFRPPIDLMHKGSFETAKECGQMQNKWLMINIQNVQDFACQCLNRDVWSNEAVKNIIREHFIFWQVYHDSEEGQRYIQFYKLGDFPYVSILDPRTGQKLVEWHQLDVSSFLDQVTGFLGEHGQLDGLSSSPPKKCARSESLIDASEDSQLEAAIRASLQETHFDSTQTK	not soluble
MAAKQGESDPERKETRQKVDDDRKHEIEAAIVRIMKSRKKMQHNVLVAEVTQQLKARFLPSPVVIKKRIEGLIEREYLARTPEDRKVYTYVA	soluble
MAALTKVKLCQLDDLMPFIGATVLIEGERVALFYIPDSGVYAVQDWDPIGKAYVMSRGIVGDINGEMCVASPLYKQHFSLKSGQCLEDEAHCLKTWRVTVDDNQVCYLAKELEHHHHHH	soluble
MAAPSMKERQACWGARDLYWRCLDDNAEDAARCQKLRSSFEASCPQQWIKYFDKRRDYLKFKEKFEAGGFQSSQSTENS	soluble
MAARLAASRIVHAGRGISQPTPFGKRMDRLSNRVWGEVVMPTDTKSLKVVRVMSAEPYETKEQLSPKYYPNLPMFHYLTKMLRFHGLFFDDHVVFRDVQDNLKIIRGKVVRPPIGQGKRAQLRGKK	not soluble
MAAVPELLEQQEEDRSKLRSVSVDLNVDPSLQIDIPDALSERDKVKFTVHTKTTLSTFQSPEFSVTRQHEDFVWLHDTLTETTDYAGLIIPPAPTKPDFDGPREKMQKLGEGEGSMTKEEFAKMKQELEAEYLAVFKKTVSTHEVFLQRLSSHPVLSKDRNFHVFLEYDQDLSVRRKNTKEMFGGFFKSVVKSADEVLFSGVKEVDDFFEQEKNFLINYYNRIKDSCAKADKMTRSHKNVADDYIHTAACLHSLALEEPTVIKKYLLKVAELFEKLRKVEGRVSSDEDLKLTELLRYYMLNIEAAKDLLYRRTKALIDYENSNKALDKARLKSKDVKLAETHQQECCQKFEQLSESAKEELINFKRKRVAAFRKNLIEMSELEIKHARNNVSLLQSCIDLFKNN	soluble
MAAWTPDLEAELSQLLKDWLKQQGRTQADLRRSLKAVSTRMPALLEVLEREHRLNGLSGLLARLCRVETEWHGGADHTSEAAEQSDPFGQLDLLLQEIRQDCPS	not soluble
MACTAADVVEEDLMSDRIANAQLRGKVMSAEEAAQFVNHGDKVGVSGFTGAGYPKALPTAIAERAKEAHARGDEYMIDLFTGASTAPDCDGVLAEADALRFRTPYQSDPILRSKINDGTTLYADYHLSESGIYVEQGFFGQMNVAIVEAVRITEEGHIVPSSSVGNNVEYLDNAEKIIIEVNSWQSEELEGMADIYRMNKLPNRQPIPITEAGQRIGTTYIDIDLSKVVAVVETDAPDRNAPFKPLDETSKQIAGHFLDFLEGEVAAGRLTYDGYVMQSGVGNVPNAVMAGLLDSKFENIKAYTEVIQDGMVDLIDAGKMTVASATSFSLSPEYAERMNAEAKNYAQKIILRPQQISNHPEVVRRLGLICTNGLIEADIYGNVNSTNVTGSRMMNGVGGSADFTRNGFISSFITPSVAKGGDISAFVPFVSHVDHTEQDVKVLISEYGYADLRGLAPRQRVEKIIAIAHPDYRPLLQDYYDRALAFAKEKKIMQTPHLLGEALSFHQRFQETGSMKK	not soluble
MADAEGDPLQAFWTQVVRLRDLLKFDFYFADSAAFHQNVAEEMSWHADWEQQVRAGRDGIETLMRAKRPLLADAMLRPYFEAYTIVADVLRDAPAEIAEKDLTKLALGVGQQYVAQGRVRNNESVSALLFATARQVAADQGLLEHGPDLMEQRRAFRDELRGILRDLDTVDRYARELFAARERERRTKRDEAVLEHHHHHH	not soluble
MADETDITHTKWLAYSKSLKIDLTYPGINGIGIIYNIQADQLDDYIEKQRVLRPNYAIHPSHNESEYWPITYVEPAAPNKKAIGLDMAFETNRYSSIKKARDTGVAQLTGPITLVQDAKKTPGFLFYTPFYKNGTKPESTEARRDAIDGVTYAPFIMKNLMQGTLAEKNRHVSIQIRDAGDLLFDDHDDESVLDADANPLFTKEQDISLYGRTWSFTIQSNLDFRDESAANQLEHHHHHH	soluble
MADFDTNPTSLYSIKGIVILDQDGNRVLAKYYDRTTFGTVKEQKAFEKSLFSKTSRNTSADILLLDGVTCLYRSNVDLYFYVLGSTRENELFLDATLTCLYDAVSVVLRKNVEKKALIDSMDTIMLIIDEICDEGIIMETDAQAVVQRTALKSDEVSFSDQSVSQIGFSFMKSANEQFKWSLLK	not soluble
MADILLLDNIDSFTYNLVDQLRSSGHRVVIYRNHIAADNIIERLQQLEQPVLMLSPGPGTPAQAGCMPELLQRLQGQLPMIGICLGHQAIIEAYGGHVGQAGEILHGKASAIEHDGQGMFAGMPNPLPVARYHSLVGSNLPAELTVNARFGEMVMAVRHDAHRVCGYQFHPESILTTHGARLLEQTLAWALA	not soluble
MADLPISLLQTLAYKQPLGRNSRIVHFTDGALFPVVAFGDNHSTSELYIAVRGDHRDLMSPDVRDSYALTGDDHKVWGATHHTYYVEGAPKKPLKFNVKTRTDLTILPVADVFWRADGSADVDVVWNDMPAVAGQSSSIALALASSLPFVPKAAYTGCLSGTNVQPVQFGNLKARAAHKIGLPLVGMTQDGGEDTRICTLDDAADHAFDSMESTVTR	soluble
MADNYVIWFENLRMTDVERVGGKNASLGEMISQLTEKGVRVPGGFATTAEAYRAFLAHNGLSERISAALAKLDVEDVAELARVGKEIRQWILDTPFPEQLDAEIEAAWNKMVADAGGADISVAVRSSATAEDLPDASFAGQQETFLNINGLDNVKEAMHHVFASLYNDRAISYRVHKGFEHDIVALSAGVQRMVRSDSGASGVMFTLDTESGYDQVVFVTSSYGLGENVVQGAVNPDEFYVFKPTLKAGKPAILRKTMGSKHIKMIFTDKAEAGKSVTNVDVPEEDRNRFSITDEEITELAHYALTIEKHYGRPMDIEWGRDGLDGKLYILQARPETVKSQEEGNRNLRRFAINGDKTVLCEGRAIGQKVGQGKVRLIKDASEMDSVEAGDVLVTDMTDPDWEPVMKRASAIVTNRGGRTCHAAIIARELGIPAVVGCGNATELLKNGQEVTVSCAEGDTGFIYAGLLDVQITDVALDNMPKAPVKVMMNVGNPELAFSFANLPSEGIGLARMEFIINRQIGIHPKALLEFDKQDDELKAEITRRIAGYASPVDFYVDKIAEGVATLAASVYPRKTIVRMSDFKSNEYANLVGGNVYEPHEENPMLGFRGAARYVADNFKDCFALECKALKRVRDEMGLTNVEIMIPFVRTLGEAEAVVKALKENGLERGKNGLRLIMMCELPSNAVLAEQFLQYFDGFSIGSNDMTQLTLGLDRDSGLVSESFDERNPAVKVMLHLAISACRKQNKYVGICGQGPSDHPDFAKWLVEEGIESVSLNPDTVIETWLYLANELNK	soluble
MADPLSKEEDIQHRPDSPPLGLLDPSRIQNPLANDQLHQVPQQQNPSGFVMPEQPRQQPPPQTWQRTPTMSPANIFQGGSGTPGSQRSSTGTPNHQMGNPPQHQQQQFFHGESPAHSQGTPMTPQSAGMPGSNCGTPQSAGGPPTSVPYDYQQAQMQQQQHAQAMAAAAAAQQQQQQHLQQQQYAQNPQQMHDSPYRQHQMMQMHQHPGHPSQYPPGYPQQQAAQWQQQMYARQAAAQAQAQAQAQAQAQAQQRAAAQRVPVPYPPGAYPPGMPGPMTPGYPAQAPAAPRTTPGSAGPGTGPPGTPQRPQYPQGTNPQPQQAQFTYPPTQQMTPTGQPPGYPGMPGTPTFSSPAHQMFRQGQPTAPPGMRQYISPQAGQQQPTPGTPHRFAPPGPSGTTSSPHFAPGAPGADLRSPSLMSPNQQSQQHTPVLPRSLHNEMTSHGMRPIALPSQPLPQTQGTPQPILSASSLPPQSAGATQFVYRPQQPNQMNTMNQMNQMHHDVNPFPIQMNVDPELYLTGIHFHCFDSEKLFEDKLDRKNLEFMIKYHGGDIEFEASKFHERIHQITHVLVDSCRNTNVMTSLEHRKRIVSIQWIIDVMERERVELPWRIAHLPPPFNENFRPYLGKLFSLSGFDSSERAAISFMAEMMGAKITPFLARQNDLLIAKQPADKVTRAQEWKVPVVNFQWIADAYVCDEASPQKRPNVENPRYQLENPVMTNVNTSPNHIEGASQEFGAMMSCWKSQTIIADQAYEKARQNRKTLQNNTFFFPSKRLSDQAVAPTEDEIKSSRARLDEIKTHWEEHQEKMKDTPLSKEFYRVREPQARVSAWFGEGIDDEALTILKKKLEFLGGECVEKIRDATHVILISGRRSLVLLESIIRGKNIMDPEWIVDSYKQKMWLDTLDYFLHDKELEKEFAYNCKRSVLRARNKPVFEDIEFHVTRFVEPNQNDLVRLIELGGGNVHSEKPDPKYLAKCVETEQPFIIISCENDARFLSYLAGSKLPIYNVDLVLFAMLRQQIEPLPQYRIPIPIVVKTPVFRQPPPYTAPPKDQEPAASLASEPTRAADVLSENS	not soluble
